For data set [1], the target named is T1, sN-TALER N4.2.2 (synthetic).
T1 chain: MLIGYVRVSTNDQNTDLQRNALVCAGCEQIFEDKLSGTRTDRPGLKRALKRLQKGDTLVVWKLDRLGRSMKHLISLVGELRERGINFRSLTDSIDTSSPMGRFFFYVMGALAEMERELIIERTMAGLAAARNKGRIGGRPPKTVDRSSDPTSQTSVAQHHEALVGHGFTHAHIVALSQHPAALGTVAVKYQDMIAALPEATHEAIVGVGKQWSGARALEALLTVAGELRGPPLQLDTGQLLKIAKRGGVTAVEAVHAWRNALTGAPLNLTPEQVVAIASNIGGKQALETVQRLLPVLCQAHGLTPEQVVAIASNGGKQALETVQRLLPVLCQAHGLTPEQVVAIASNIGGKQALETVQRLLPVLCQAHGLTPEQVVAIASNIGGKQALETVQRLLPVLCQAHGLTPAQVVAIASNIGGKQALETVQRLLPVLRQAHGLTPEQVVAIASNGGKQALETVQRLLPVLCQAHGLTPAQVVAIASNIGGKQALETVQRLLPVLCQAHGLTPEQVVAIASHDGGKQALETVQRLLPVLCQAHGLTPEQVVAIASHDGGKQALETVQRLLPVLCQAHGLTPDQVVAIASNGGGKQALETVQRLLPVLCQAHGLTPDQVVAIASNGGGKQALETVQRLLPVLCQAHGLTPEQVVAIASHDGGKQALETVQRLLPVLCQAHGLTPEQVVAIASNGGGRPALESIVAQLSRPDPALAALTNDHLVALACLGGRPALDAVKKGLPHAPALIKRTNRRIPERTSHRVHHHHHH
Put plainly: cell_activity; E. coli. How it is done:
(§1) The co-transformed bacteria were plated on media with chloramphenicol, kanamycin, and X-gal then incubated at 37° C. for 18 to 36 hours. Control samples consisted of transformations using the reporter construct alone. Control transformants were similarly plated. The bacterial transformation protocol was either heat shock or electroporation per standard molecular biology techniques.
For each of these N-TALER chimera expression constructs, from one to three independent clones were selected for plasmid purification. These N-TALER chimera expression constructs were co-transformed with five of the N-TALER reporter constructs, as indicated in Table 15. […] In contrast to the result for pN-TALER N4.2.2, the chimera sN-TALER N4.2.2, with the same truncation point but a specific recombinase catalytic domain, reporters with 20, 24, or 40 bp of TALER central sequence length were efficiently recombined (score of 1) while reporters with 30 or 50 bp of TALER central sequence length were not recombined (score of 5). For the chimera sN-TALER N4.2, reporters with 20, 24, or 40 bp of TALER central sequence length were efficiently recombined (score of 1); the reporter with 30 bp of TALER central sequence length was poorly recombined (score of 3); and the reporter with 50 bp of TALER central sequence length was not recombined (score of 5). For the chimera pN-TALER N4.2, the recombination efficiency on the reporters tested varied from intermediate (scores of 3 and 4) to none (score of 5). […] In contrast to the result for sN-TALER N3.2, the chimera pN-TALER N3.2, with the same truncation point but a permissive recombinase catalytic domain, recombination efficiency on the reporters tested varied from efficient (scores of 1.5, 2, and 3) to none (score of 5). For both chimeras sN-TALER V.2 and pN-TALER V.2, there was efficient recombination (scores of 1, 1.5, and 2) of the 5 N-TALER reporter constructs tested.

Data set [2] deals with T2, pN-TALER IV-14 (synthetic).
T2 chain: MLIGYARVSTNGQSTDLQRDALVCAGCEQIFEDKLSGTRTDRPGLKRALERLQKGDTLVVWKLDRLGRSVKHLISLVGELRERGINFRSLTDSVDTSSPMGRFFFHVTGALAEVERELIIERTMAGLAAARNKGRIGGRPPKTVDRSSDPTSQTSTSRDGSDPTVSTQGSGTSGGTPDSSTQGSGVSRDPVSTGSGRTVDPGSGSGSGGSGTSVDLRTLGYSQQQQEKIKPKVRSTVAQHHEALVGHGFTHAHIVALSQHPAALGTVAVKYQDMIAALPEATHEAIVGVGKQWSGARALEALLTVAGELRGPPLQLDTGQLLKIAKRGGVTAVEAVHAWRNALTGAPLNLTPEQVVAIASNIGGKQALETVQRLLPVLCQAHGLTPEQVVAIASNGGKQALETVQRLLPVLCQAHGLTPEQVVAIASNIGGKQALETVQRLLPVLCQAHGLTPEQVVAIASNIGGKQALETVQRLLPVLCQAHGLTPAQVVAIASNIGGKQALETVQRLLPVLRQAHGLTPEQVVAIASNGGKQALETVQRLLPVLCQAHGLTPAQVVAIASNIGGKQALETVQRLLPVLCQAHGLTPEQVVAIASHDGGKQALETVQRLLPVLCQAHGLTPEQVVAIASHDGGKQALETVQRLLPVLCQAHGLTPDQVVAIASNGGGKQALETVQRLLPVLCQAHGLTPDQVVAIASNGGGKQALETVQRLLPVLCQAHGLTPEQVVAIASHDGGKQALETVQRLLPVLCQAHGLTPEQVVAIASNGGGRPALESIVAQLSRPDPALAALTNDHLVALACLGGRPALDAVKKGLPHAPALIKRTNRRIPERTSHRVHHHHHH
The experiment in a line: cell_activity; E. coli. How it is done:
as §1, with “To test for recombination, E. coli DH5alpha cells were co-transformed with different combinations of TALER expression construct and TALER reporter construct pairs (Tables 6 and 7). The N-TALER expression and reporter constructs were in an approximate 1:1 mass ratio during the transformation. The co-transformed” for “The co-transformed”
The N-TALER expression constructs representing the N-TALER chimeras with varying linker lengths were co-transformed with N-TALER reporter constructs with TALER central sequence lengths of 18, 20, 24, 30, 40, and 50 bp (Table 13). […] Recombination did occur, but was less efficient with the pN-TALER IV-14 (linker length of 71 amino acids) with each of the N-TALER reporters tested.

Substitutions are numbered along the chain they refer to.

B1: Gin18TALE+1 (dsDNA)
DNA 1: AGAAGGTATTTATATCCAAAACCATGGTTTACAATATAAATACCTTCT
DNA 2: B1 DNA 1 with C16T, C17G, A18T, A31T, C32G, A33G
For B1, the activity in data set [1] came out at 1 score.

B2: Gin20TALE+0 (dsDNA)
DNA 1: B1 DNA 1 with A34G
DNA 2: AGAAGGTATTTATACTGTAAACCATGGTTTTGGATATAAATACCTTCT
B2: the activity in data set [2] worked out at 3 score.

The values are drawn from patent publication US20140193915, “COMPOSITIONS AND METHODS FOR CUSTOM SITE-SPECIFIC DNA RECOMBINASES” (Monsanto Technology, LLC, published 2014).
